Data reported in the supplement of paper PMC10567573.
± gives the standard deviation.

Experiment: protein stability index of a GFP-peptide fusion (GPS, HEK-293T) (PSI 1-6); higher = more stable
Conditions: c terminus: a fixed tail appended
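Note: 24-mer peptide tiles fused after GFP, lentivirally expressed, FACS-sorted into six equal bins by GFP/DsRed ratio, decoded by Illumina sequencing, PSI is the read-weighted mean bin number.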

DLSKPPCRKAKEIRKERKRLKLMQ [ATE1] gave a protein stability index (treatment: DMSO) of 3.55 ± 0.13 and a protein stability index (treatment: MLN4924 1 uM, 8 h) of 3.64 ± 0.35.

Work on AGGFQQRQGLKYCLPLTFCIHTGL [FBXO3] yielded a protein stability index (treatment: DMSO) of 2.58 ± 0.57 and a protein stability index (treatment: MLN4924 1 uM, 8 h) of 2.4 ± 0.24.

DGEEIPVQKNILAAASPYIRTKLN [GAN] gave a protein stability index (treatment: DMSO) of 4.13 ± 0.33 and a protein stability index (treatment: MLN4924 1 uM, 8 h) of 4.32 ± 0.28.

Sequence SKQRKDFEGMAFLETEQGKPFVSV [GMCL1] has a protein stability index (treatment: DMSO) of 3.42 ± 0.14 and a protein stability index (treatment: MLN4924 1 uM, 8 h) of 3.27 ± 0.16.

Work on ELVYADDYIMDEDQSKLAGLLDLN [ESRRG] yielded a protein stability index (treatment: DMSO) of 3.48 ± 0.21 and a protein stability index (treatment: MLN4924 1 uM, 8 h) of 3.68 ± 0.21.

In the case of FQEAQIKRKARNEGRNRRRQQVLP [CDKL4], the protein stability index (treatment: DMSO) is reported as 3.79 ± 0.54 and the protein stability index (treatment: MLN4924 1 uM, 8 h) is reported as 4.08 ± 0.14.

Work on SDEYKIRRERNNIAVRKSRDKAKM [CEBPB] yielded a protein stability index (treatment: DMSO) of 4.75 ± 0.27 and a protein stability index (treatment: MLN4924 1 uM, 8 h) of 5 ± 0.17.

In the case of GFQPPSPSLRPRPASSISLPIGHL [DMRTC1], the protein stability index (treatment: DMSO) is reported as 3.43 ± 0.21 and the protein stability index (treatment: MLN4924 1 uM, 8 h) is reported as 3.44 ± 0.19.

GSIEYSCPASNECEITKRRRKACQ [ESRRA] showed a protein stability index (treatment: DMSO) of 4.88 ± 0.23 and a protein stability index (treatment: MLN4924 1 uM, 8 h) of 4.97 ± 0.25.

With AHEIERLQMEMKEDDVSFLMKHKS [TRIM35] the protein stability index (treatment: DMSO) was 4.83 ± 0.24 and the protein stability index (treatment: MLN4924 1 uM, 8 h) was 4.67 ± 0.25.

For EPATPEEGEPATQRQDPAAAQEGE [GAGE1], the protein stability index (treatment: DMSO) was 5.62 ± 0.13 and the protein stability index (treatment: MLN4924 1 uM, 8 h) was 5.61 ± 0.19.

With PQELLEWELVVLGKLKWNLAAVTP [CCND2] the protein stability index (treatment: DMSO) was 2.47 ± 0.77 and the protein stability index (treatment: MLN4924 1 uM, 8 h) was 2.36 ± 0.57.

Sequence QSWMWRGLTFLLPFLFFGHFWQLF [TMEM120A] has a protein stability index (treatment: DMSO) of 2.66 ± 1.1 and a protein stability index (treatment: MLN4924 1 uM, 8 h) of 2.79 ± 0.25.

Sequence IETEPTVHHLPLSTEKVVQETVLV [EPB41L3] has a protein stability index (treatment: DMSO) of 4 ± 0.11 and a protein stability index (treatment: MLN4924 1 uM, 8 h) of 3.84 ± 0.28.

LLTITKAHSNAISNCCFTFSGHFL [WDR88] gave a protein stability index (treatment: DMSO) of 3.12 ± 1.1 and a protein stability index (treatment: MLN4924 1 uM, 8 h) of 2.59 ± 0.48.

With PLPAGSLPPYPPYFEGAPFPHPLW [PWWP2B] the protein stability index (treatment: DMSO) was 2.58 ± 0.31 and the protein stability index (treatment: MLN4924 1 uM, 8 h) was 2.64 ± 0.37.

Sequence EKPRVPAFACQVAGCCQVFDALDD [ZNF511] has a protein stability index (treatment: DMSO) of 3.94 ± 0.22 and a protein stability index (treatment: MLN4924 1 uM, 8 h) of 3.99 ± 0.092.

Sequence DLEPGVLMSAQTITSETTSTTTTT [EPB41L3] has a protein stability index (treatment: DMSO) of 5.19 ± 0.32 and a protein stability index (treatment: MLN4924 1 uM, 8 h) of 5.17 ± 0.11.

VRSRLEEAGIKVHDVRLNGSAAGH [TENT5C] showed a protein stability index (treatment: DMSO) of 2.85 ± 0.43 and a protein stability index (treatment: MLN4924 1 uM, 8 h) of 3.21 ± 0.64.

NVKLQELINHKKAEDTEKKDEPSK [CEP70] showed a protein stability index (treatment: DMSO) of 5.35 ± 0.16 and a protein stability index (treatment: MLN4924 1 uM, 8 h) of 5.2 ± 0.21.

Sequence AMELKVEDPFYWVSPGVLVLLAVL [MOG] has a protein stability index (treatment: DMSO) of 2.8 ± 0.94 and a protein stability index (treatment: MLN4924 1 uM, 8 h) of 2.55 ± 0.34.

Sequence GGLNRETNEKMLKAVFGKHGPISE [RBMY1A1] has a protein stability index (treatment: DMSO) of 3.69 ± 0.28 and a protein stability index (treatment: MLN4924 1 uM, 8 h) of 3.81 ± 0.19.

With RRKGEMGLSAEDGVWAVIISHQQC [TRIM15] the protein stability index (treatment: DMSO) was 2.36 ± 0.49 and the protein stability index (treatment: MLN4924 1 uM, 8 h) was 2.16 ± 0.21.

In the case of EHICVNNGNSYICKCSEGFVLAED [MATN2], the protein stability index (treatment: DMSO) is reported as 4.61 ± 0.15 and the protein stability index (treatment: MLN4924 1 uM, 8 h) is reported as 4.26 ± 0.53.

Sequence ERPWIKRMIFKLFSQETVMKFVPR [APMAP] has a protein stability index (treatment: DMSO) of 2.71 ± 0.75 and a protein stability index (treatment: MLN4924 1 uM, 8 h) of 2.48 ± 1.1.

DPTWIESPKTNGHIENGPFSLEQQ [SRPK2] showed a protein stability index (treatment: DMSO) of 4.78 ± 0.11 and a protein stability index (treatment: MLN4924 1 uM, 8 h) of 4.75 ± 0.22.

Work on GSVGAAICGLQQDEEVSSLTCDAL [CCND2] yielded a protein stability index (treatment: DMSO) of 4.54 ± 0.35 and a protein stability index (treatment: MLN4924 1 uM, 8 h) of 4.63 ± 0.25.

MEEASEGGGNDRVRNLQSEVEGVK [VAMP8] gave a protein stability index (treatment: DMSO) of 5.49 ± 0.19 and a protein stability index (treatment: MLN4924 1 uM, 8 h) of 5.38 ± 0.16.

LGQNDTGFSCDGTANTFRVMFKEP [BTBD1] showed a protein stability index (treatment: DMSO) of 3.36 ± 0.2 and a protein stability index (treatment: MLN4924 1 uM, 8 h) of 3.29 ± 0.31.

Sequence SIPLTPGDTPIRKKEELLFDDGDD [FBF1] has a protein stability index (treatment: DMSO) of 5.51 ± 0.54 and a protein stability index (treatment: MLN4924 1 uM, 8 h) of 5.62 ± 0.17.

Sequence DEGRLVLEFSLLSYAFGKFPTVVW [SOAT1] has a protein stability index (treatment: DMSO) of 2.33 ± 0.68 and a protein stability index (treatment: MLN4924 1 uM, 8 h) of 3.07 ± 0.14.

GGVLIDRYGRRTAIILSSCLLGLG [SLC2A12] showed a protein stability index (treatment: DMSO) of 2.86 ± 1 and a protein stability index (treatment: MLN4924 1 uM, 8 h) of 2.74 ± 1.3.

Work on NHEEEVNTLRSQLGDRLNVEVDTA [KRT34] yielded a protein stability index (treatment: DMSO) of 5.4 ± 0.33 and a protein stability index (treatment: MLN4924 1 uM, 8 h) of 5.441 ± 0.028.

In the case of STPLMEAAQEGHLELVKYLLAAGA [ANKRD17], the protein stability index (treatment: DMSO) is reported as 2.22 ± 0.15 and the protein stability index (treatment: MLN4924 1 uM, 8 h) is reported as 2.48 ± 0.65.

Sequence FNMLHDNSKPCISLNGPLSTSRHV [ADAMTS4] has a protein stability index (treatment: DMSO) of 3.21 ± 0.22 and a protein stability index (treatment: MLN4924 1 uM, 8 h) of 3.26 ± 0.25.

In the case of PRLQELLGPSPQRDPQAVKERALS [ZNF263], the protein stability index (treatment: DMSO) is reported as 4.6 ± 0.27 and the protein stability index (treatment: MLN4924 1 uM, 8 h) is reported as 4.65 ± 0.3.

For VLKTSRSTPLSPAYISLVEEEDQH [KLHL13], the protein stability index (treatment: DMSO) was 4.77 ± 0.13 and the protein stability index (treatment: MLN4924 1 uM, 8 h) was 4.91 ± 0.17.

Work on DNWIPLLWCANILGYAVSTFAMVK [DHCR7] yielded a protein stability index (treatment: DMSO) of 3.04 ± 0.44 and a protein stability index (treatment: MLN4924 1 uM, 8 h) of 3.17 ± 0.12.

MLWEHNSTIVVMLTKLREMGREKC [PTPRD] showed a protein stability index (treatment: DMSO) of 2.33 ± 0.55 and a protein stability index (treatment: MLN4924 1 uM, 8 h) of 2.15 ± 0.2.

In the case of TPMLNPLIYTLKNAEMKSAMRKLW [OR4A15], the protein stability index (treatment: DMSO) is reported as 2.11 ± 0.32 and the protein stability index (treatment: MLN4924 1 uM, 8 h) is reported as 2.04 ± 0.16.

GVRVSVPCPSTTCCRACSVSFSTG [BET1L] showed a protein stability index (treatment: DMSO) of 2.49 ± 0.38 and a protein stability index (treatment: MLN4924 1 uM, 8 h) of 2.35 ± 0.31.

Work on VLRCQLGDRLNVEVDAAPPVDLNK [KRT36] yielded a protein stability index (treatment: DMSO) of 4.06 ± 0.11 and a protein stability index (treatment: MLN4924 1 uM, 8 h) of 4.14 ± 0.25.

CGSARPKPYDPPGEKMVAAKVKGE [ATF4] showed a protein stability index (treatment: DMSO) of 4.57 ± 0.17 and a protein stability index (treatment: MLN4924 1 uM, 8 h) of 4.82 ± 0.33.

Work on WERVHLIVAGGYDERVLENVEHYQ [ALG2] yielded a protein stability index (treatment: DMSO) of 2.33 ± 0.19 and a protein stability index (treatment: MLN4924 1 uM, 8 h) of 2.48 ± 0.3.
